Measurements as given in patent publication US20250340603A1, “A METHOD FOR MODULATING PLANT ADAPTATION TRAITS” (CRAG (Centre de Recerca en Agrigenòmica), priority 2021, published 2025).
Each block holds one molecule with its values, some of them ahead of it.

Key:
[1] = tested on: WT (Col-0) and brl3-2 mutant seedlings; experiment: Bikinin sensitivity assay (hypocotyl elongation); assay type: in vivo, Arabidopsis thaliana; details: 6 d, LD
Description: Chemicals used include; 1 μM BRZ220 (Gift from T. Nakano, RIKEN, Japan) or 50 μM Bikinin (200980, Sigma-Aldrich) for 6-d in control (long days, 22° C.) or high temperature (long days, 28° C.) conditions. Hypocotyl length were measured using the Image J software (v.1.48v) (https-/imagej.nih.gov/ij/).
For hypocotyl elongation analysis, seedlings were grown in horizontally placed 0.5MS− media plates in controlled growth conditions (Aralab 600; long days 16:8h day/night cycle 60% relative humidity and 50-70 μmol m^−2 s^−1 of cool-white fluorescent light) at 22° C. or 28° C. temperature for 5-7d. Plates were photographed and hypocotyl length were measured using the ImageJ software (v.1.48v) (https:/imagej.nih.gov/ij/). For root growth analysis, seedlings were grown in vertically placed 0.5MS− media plates in controlled growth conditions (Aralab 600; long days 16:8h day/night cycle; 22° C.). MyROOT software (Betegón-Putzé et al., 2019) was used to compare root growth of plants. Lateral roots were manually counted under a stereozoom microscope in 9-d-old seedlings.
Seedlings were grown in horizontally placed 0.5MS− media supplemented with or without 50 μM Bikinin (200980, Sigma-Aldrich) for 6-d in control (long days, 22° C.) or high temperature (long days, 28° C.) conditions. Hypocotyl length were measured using the Image J software (v.1.48v) (https://imagej.nih.gov/ii/).

[2] = target: T1, BRI1 (BRASSINOSTEROID … 1), BiFC negative control (Arabidopsis, UniProt O22476 24-1196); experiment: BiFC (split YFP) in Nicotiana benthamiana leaves, confocal microscopy
T1 construct: whole, on cells; not shown: the construct of this control is not described
T1 sequence (looked up): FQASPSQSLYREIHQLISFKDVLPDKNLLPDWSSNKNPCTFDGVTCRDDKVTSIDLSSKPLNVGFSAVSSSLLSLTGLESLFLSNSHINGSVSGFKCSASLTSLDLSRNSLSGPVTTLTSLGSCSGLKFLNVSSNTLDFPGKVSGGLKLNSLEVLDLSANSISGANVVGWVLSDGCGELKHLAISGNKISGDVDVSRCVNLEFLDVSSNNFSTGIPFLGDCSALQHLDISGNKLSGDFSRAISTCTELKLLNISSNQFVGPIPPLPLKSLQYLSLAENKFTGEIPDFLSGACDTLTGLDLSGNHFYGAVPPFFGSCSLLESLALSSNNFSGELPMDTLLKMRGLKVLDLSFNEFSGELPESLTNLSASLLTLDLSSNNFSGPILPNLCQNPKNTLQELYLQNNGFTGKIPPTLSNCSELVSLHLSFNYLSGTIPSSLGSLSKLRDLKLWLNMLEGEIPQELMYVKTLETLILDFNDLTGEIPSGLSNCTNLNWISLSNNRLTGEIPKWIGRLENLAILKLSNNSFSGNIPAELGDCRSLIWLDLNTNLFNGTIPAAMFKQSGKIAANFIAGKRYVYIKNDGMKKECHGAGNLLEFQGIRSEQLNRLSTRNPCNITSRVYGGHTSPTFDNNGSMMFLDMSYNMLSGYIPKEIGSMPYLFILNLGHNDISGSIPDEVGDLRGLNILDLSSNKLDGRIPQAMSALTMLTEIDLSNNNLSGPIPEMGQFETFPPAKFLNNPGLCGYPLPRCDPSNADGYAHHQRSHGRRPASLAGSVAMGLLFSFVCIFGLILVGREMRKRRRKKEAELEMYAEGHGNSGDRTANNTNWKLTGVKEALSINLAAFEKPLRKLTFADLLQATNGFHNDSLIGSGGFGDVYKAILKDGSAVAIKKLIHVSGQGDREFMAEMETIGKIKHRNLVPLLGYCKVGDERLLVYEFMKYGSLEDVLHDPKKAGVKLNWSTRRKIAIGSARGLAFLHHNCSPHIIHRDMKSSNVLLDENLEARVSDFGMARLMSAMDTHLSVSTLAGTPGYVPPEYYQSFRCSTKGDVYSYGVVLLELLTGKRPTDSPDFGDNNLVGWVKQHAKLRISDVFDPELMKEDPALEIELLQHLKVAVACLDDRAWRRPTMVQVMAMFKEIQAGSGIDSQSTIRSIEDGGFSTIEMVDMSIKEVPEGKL

[3] = target: T2, BRL3T1025A, phospho-dead version of the BRL3 kinase domain
T2 chain: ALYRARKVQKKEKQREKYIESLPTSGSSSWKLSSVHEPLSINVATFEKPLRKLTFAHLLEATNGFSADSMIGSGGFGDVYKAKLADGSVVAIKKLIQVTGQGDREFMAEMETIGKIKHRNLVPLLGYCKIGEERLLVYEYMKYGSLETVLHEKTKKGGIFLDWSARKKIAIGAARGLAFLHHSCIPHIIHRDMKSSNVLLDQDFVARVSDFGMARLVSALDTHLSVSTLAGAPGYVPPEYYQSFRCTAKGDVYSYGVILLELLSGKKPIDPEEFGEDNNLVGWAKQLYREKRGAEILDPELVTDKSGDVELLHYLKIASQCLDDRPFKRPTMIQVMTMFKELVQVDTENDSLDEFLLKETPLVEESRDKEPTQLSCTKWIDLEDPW

[4] = target: T3, KIN7 kinase domain, GST- or MBP-tagged, from E. coli
T3 chain: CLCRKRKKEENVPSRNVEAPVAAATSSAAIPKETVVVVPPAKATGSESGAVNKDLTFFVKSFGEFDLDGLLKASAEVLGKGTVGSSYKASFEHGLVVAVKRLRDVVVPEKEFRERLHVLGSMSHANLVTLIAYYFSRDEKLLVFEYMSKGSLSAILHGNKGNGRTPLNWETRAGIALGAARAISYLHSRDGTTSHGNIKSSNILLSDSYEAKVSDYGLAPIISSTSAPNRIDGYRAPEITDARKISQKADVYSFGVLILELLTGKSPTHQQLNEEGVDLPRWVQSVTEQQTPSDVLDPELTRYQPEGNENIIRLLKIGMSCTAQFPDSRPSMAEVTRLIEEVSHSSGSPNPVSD

Molecule: O=C(O)CCC(=O)Nc1ccc(Br)cn1 [Bikinin]
- hypocotyl elongation ([1]; 50 μM Bikinin in media, WT and brl3-2 mutant, control (22° C.) and high temperature (28° C.)): promote hypocotyl elongation
- rescue of brl3 conditional phenotypes (hypocotyl elongation) on elevated temperature ([1]; 50 μM Bikinin, brl3-2 mutant, 28° C.): rescued brl3 conditional phenotypes

- binding result [2]: no binding
B1: BRL3 (BRASSINOSTEROID RECEPTOR LIKE 3), full length, fused to a half of YFP (BiFC construct) (receptor)
chain: RRLLSDDVNDTALLTAFKQTSIKSDPTNFLGNWRYGSGRDPCTWRGVSCSSDGRVIGLDLRNGGLTGTLNLNNLTALSNLRSLYLQGNNFSSGDSSSSSGCSLEVLDLSSNSLTDSSIVDYVFSTCLNLVSVNFSHNKLAGKLKSSPSASNKRITTVDLSNNRFSDEIPETFIADFPNSLKHLDLSGNNVTGDFSRLSFGLCENLTVFSLSQNSISGDRFPVSLSNCKLLETLNLSRNSLIGKIPGDDYWGNFQNLRQLSLAHNLYSGEIPPELSLLCRTLEVLDLSGNSLTGQLPQSFTSCGSLQSLNLGNNKLSGDFLSTVVSKLSRITNLYLPFNNISGSVPISLTNCSNLRVLDLSSNEFTGEVPSGFCSLQSSSVLEKLLIANNYLSGTVPVELGKCKSLKTIDLSFNALTGLIPKEIWTLPKLSDLVMWANNLTGGIPESICVDGGNLETLILNNNLLTGSLPESISKCTNMLWISLSSNLLTGEIPVGIGKLEKLAILQLGNNSLTGNIPSELGNCKNLIWLDLNSNNLTGNLPGELASQAGLVMPGSVSGKQFAFVRNEGGTDCRGAGGLVEFEGIRAERLEHFPMVHSCPKTRIYSGMTMYMFSSNGSMIYLDLSYNAVSGSIPLGYGAMGYLQVLNLGHNLLTGTIPDSFGGLKAIGVLDLSHNDLQGFLPGSLGGLSFLSDLDVSNNNLTGPIPFGGQLTTFPLTRYANNSGLCGVPLPPCSSGSRPTRSHAHPKKQSIATGMSAGIVFSFMCIVMLIMALYRARKVQKKEKQREKYIESLPTSGSSSWKLSSVHEPLSINVATFEKPLRKLTFAHLLEATNGFSADSMIGSGGFGDVYKAKLADGSVVAIKKLIQVTGQGDREFMAEMETIGKIKHRNLVPLLGYCKIGEERLLVYEYMKYGSLETVLHEKTKKGGIFLDWSARKKIAIGAARGLAFLHHSCIPHIIHRDMKSSNVLLDQDFVARVSDFGMARLVSALDTHLSVSTLAGTPGYVPPEYYQSFRCTAKGDVYSYGVILLELLSGKKPIDPEEFGEDNNLVGWAKQLYREKRGAEILDPELVTDKSGDVELLHYLKIASQCLDDRPFKRPTMIQVMTMFKELVQVDTENDSLDEFLLKETPLVEESRDKEPTQLSCTKWIDLEDPW
notes: also called BRL3 receptor; AT3G13380; not shown: half of YFP (YN or YC, both directions tested) from vectors pGTQL1211-YN / pGTQL1221-YC

B2: KIN7 kinase domain, GST- or MBP-tagged, from E. coli (protein)
chain: CLCRKRKKEENVPSRNVEAPVAAATSSAAIPKETVVVVPPAKATGSESGAVNKDLTFFVKSFGEFDLDGLLKASAEVLGKGTVGSSYKASFEHGLVVAVKRLRDVVVPEKEFRERLHVLGSMSHANLVTLIAYYFSRDEKLLVFEYMSKGSLSAILHGNKGNGRTPLNWETRAGIALGAARAISYLHSRDGTTSHGNIKSSNILLSDSYEAKVSDYGLAPIISSTSAPNRIDGYRAPEITDARKISQKADVYSFGVLILELLTGKSPTHQQLNEEGVDLPRWVQSVTEQQTPSDVLDPELTRYQPEGNENIIRLLKIGMSCTAQFPDSRPSMAEVTRLIEEVSHSSGSPNPVSD
- incorporation of 32P into BRL3 kinase (in vitro phosphorylation, autoradiography) [3]: KIN7 is not able to phosphorylate BRL3 domains given that the BRL3 phosphorylation pattern is lost when KIN7 is incubated with the phospho-dead version of BRL3 kinase

B3: BRL3 kinase domain, GST- or MBP-tagged, from E. coli (protein)
chain: ALYRARKVQKKEKQREKYIESLPTSGSSSWKLSSVHEPLSINVATFEKPLRKLTFAHLLEATNGFSADSMIGSGGFGDVYKAKLADGSVVAIKKLIQVTGQGDREFMAEMETIGKIKHRNLVPLLGYCKIGEERLLVYEYMKYGSLETVLHEKTKKGGIFLDWSARKKIAIGAARGLAFLHHSCIPHIIHRDMKSSNVLLDQDFVARVSDFGMARLVSALDTHLSVSTLAGTPGYVPPEYYQSFRCTAKGDVYSYGVILLELLSGKKPIDPEEFGEDNNLVGWAKQLYREKRGAEILDPELVTDKSGDVELLHYLKIASQCLDDRPFKRPTMIQVMTMFKELVQVDTENDSLDEFLLKETPLVEESRDKEPTQLSCTKWIDLEDPW
- incorporation of 32P into KIN7 kinase (in vitro phosphorylation, autoradiography) [4]: The image show and autoradiography revealing the incorporation of 32P into KIN7 kinase when incubated with BRL3

B4: BRL3T1025A, phospho-dead version of the BRL3 kinase domain (protein)
chain: ALYRARKVQKKEKQREKYIESLPTSGSSSWKLSSVHEPLSINVATFEKPLRKLTFAHLLEATNGFSADSMIGSGGFGDVYKAKLADGSVVAIKKLIQVTGQGDREFMAEMETIGKIKHRNLVPLLGYCKIGEERLLVYEYMKYGSLETVLHEKTKKGGIFLDWSARKKIAIGAARGLAFLHHSCIPHIIHRDMKSSNVLLDQDFVARVSDFGMARLVSALDTHLSVSTLAGAPGYVPPEYYQSFRCTAKGDVYSYGVILLELLSGKKPIDPEEFGEDNNLVGWAKQLYREKRGAEILDPELVTDKSGDVELLHYLKIASQCLDDRPFKRPTMIQVMTMFKELVQVDTENDSLDEFLLKETPLVEESRDKEPTQLSCTKWIDLEDPW
- incorporation of 32P into KIN7 kinase (in vitro phosphorylation, autoradiography) [4]: The phosphorylation in KIN7 kinase domain is lost when incubated with a phospho-dead version of BRL3, the BRL3T1025A
